Results: patent US20240108766A1 (Bayer, published 2024)

T1: human LRRC15 extracellular domain with C-terminal His tag (human, UniProt Q8TF66 22-538)
T1 construct: Recombinant, made in HEK293; the entry holds the extracellular domain and the His tag; SPR analyte; also called TPP-1545; hLRRC15 CT-His
T1 sequence: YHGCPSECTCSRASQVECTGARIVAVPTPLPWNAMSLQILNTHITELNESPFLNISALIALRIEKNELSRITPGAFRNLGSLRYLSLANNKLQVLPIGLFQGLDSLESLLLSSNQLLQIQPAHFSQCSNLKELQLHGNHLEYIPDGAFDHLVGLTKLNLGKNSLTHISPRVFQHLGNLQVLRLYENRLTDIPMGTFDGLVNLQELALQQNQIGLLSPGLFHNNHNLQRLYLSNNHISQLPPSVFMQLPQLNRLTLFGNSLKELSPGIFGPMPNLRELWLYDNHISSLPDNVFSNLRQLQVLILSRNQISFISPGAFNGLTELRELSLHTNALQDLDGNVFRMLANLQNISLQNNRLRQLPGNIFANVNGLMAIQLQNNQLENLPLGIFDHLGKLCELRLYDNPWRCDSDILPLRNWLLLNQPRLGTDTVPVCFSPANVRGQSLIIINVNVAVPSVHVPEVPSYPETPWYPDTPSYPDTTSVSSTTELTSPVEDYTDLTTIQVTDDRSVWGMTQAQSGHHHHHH

T2: cynomolgus (Macaca fascicularis) LRRC15 extracellular domain with C-terminal His tag (cynomolgus monkey (Macaca fascicularis), UniProt Q8TF66 22-538 (human entry))
T2 construct: Recombinant, made in HEK293; the entry holds the extracellular domain and the His tag; SPR analyte; also called TPP-9046
T2 chain: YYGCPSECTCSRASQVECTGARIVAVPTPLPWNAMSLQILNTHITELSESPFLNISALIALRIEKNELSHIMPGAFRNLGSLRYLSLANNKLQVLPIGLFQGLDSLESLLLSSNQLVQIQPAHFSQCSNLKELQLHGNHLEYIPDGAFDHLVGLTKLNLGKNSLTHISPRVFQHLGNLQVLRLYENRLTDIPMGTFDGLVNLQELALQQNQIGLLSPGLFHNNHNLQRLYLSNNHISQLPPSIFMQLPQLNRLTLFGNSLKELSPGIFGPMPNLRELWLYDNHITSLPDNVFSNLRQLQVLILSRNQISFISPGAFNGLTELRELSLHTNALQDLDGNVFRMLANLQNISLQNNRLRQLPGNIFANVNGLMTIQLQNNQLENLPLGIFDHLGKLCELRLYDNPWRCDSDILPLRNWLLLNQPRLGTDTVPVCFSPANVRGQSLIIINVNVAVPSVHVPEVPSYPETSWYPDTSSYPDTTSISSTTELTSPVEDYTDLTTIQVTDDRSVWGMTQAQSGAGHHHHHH

T3: human LRRC15 expressed on cells (human, UniProt Q8TF66 22-581)
T3 construct: whole, on cells; On HEK293 cells transfected with LRRC15/ZsGreen1 (Retrogenix), on HT29 cells transfected with human LRRC15, and endogenous on Saos-2; also called LRRC15/ZsGreen1 transfected HEK293 cells; HT29-LRRC15
T3 sequence (looked up): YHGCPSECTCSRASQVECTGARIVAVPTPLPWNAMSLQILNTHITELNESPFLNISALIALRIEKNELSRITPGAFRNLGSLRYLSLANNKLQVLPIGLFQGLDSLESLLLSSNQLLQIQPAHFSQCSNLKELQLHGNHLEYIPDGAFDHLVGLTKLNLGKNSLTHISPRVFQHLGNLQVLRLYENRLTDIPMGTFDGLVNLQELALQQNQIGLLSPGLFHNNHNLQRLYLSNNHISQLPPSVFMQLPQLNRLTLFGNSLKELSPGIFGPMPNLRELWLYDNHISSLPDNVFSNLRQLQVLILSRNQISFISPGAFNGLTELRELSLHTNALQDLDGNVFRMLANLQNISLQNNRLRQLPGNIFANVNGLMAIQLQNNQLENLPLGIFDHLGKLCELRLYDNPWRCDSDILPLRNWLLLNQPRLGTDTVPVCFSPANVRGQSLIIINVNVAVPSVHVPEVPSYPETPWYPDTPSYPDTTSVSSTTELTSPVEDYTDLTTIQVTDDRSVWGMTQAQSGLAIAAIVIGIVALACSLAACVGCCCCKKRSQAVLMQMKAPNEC


How the values were obtained:
[1] = target: T1, human LRRC15 extracellular domain with …; assay: SPR Biacore T200, 25°C, antibody captured, LRRC15 analyte
Protocol: (§1) To assess the binding kinetics and affinity of anti-LRRC15 antibodies as well as their species cross-reactivity profile, binding assays were conducted using surface plasmon resonance (SPR). Binding assays were performed on a Biacore T200 instrument at 25° C. using assay buffer HBS EP+, 1 mg/ml BSA, 300 mM NaCl, 0.05% NaN3. Antibodies were captured via anti-human Fc IgGs covalently amine coupled to a CM5 sensor chip and human, mouse and cynomolgus LRRC15 were used as analytes in a concentration series from 1.56-200 nM in multi cycle kinetics mode. […] Obtained sensorgrams were fitted to a 1:1 Langmuir binding model to derive kinetic data.

[2] = target: T2, cynomolgus (Macaca fascicularis) LRRC15 …; assay: as above
Protocol: as §1

[3] = target: T1, human LRRC15 extracellular domain with …; assay: SPR Biacore T200, antibody captured, LRRC15 analyte, 10°C
Protocol: (§2) To assess if anti-LRRC-15 antibodies show a difference in binding at different temperatures, binding assays were conducted using surface plasmon resonance (SPR). Binding assays were performed on a Biacore T200 instrument at temperatures of 10° C., 20° C., 25° C. and 37° C. with assay buffer HBS EP+, 1 mg/ml BSA (bovine serum albumine), 300 mM NaCl, 0.05% NaN₃. Antibodies were captured via anti-human Fc IgGs covalently amine coupled to a CM5 sensor chip and human LRRC15 was used as an analyte in a concentration series from 1.56-200 nM in multi cycle kinetics mode. Pre-experiments were conducted to have an equal capture level at each temperature. Obtained sensorgrams were fitted to a 1:1 Langmuir binding model to derive kinetic data.

[4] = target: T1, human LRRC15 extracellular domain with …; assay: SPR Biacore T200, antibody captured, LRRC15 analyte, 25°C
Protocol: as §2

[5] = target: T3, human LRRC15 expressed on cells; assay: flow cytometry, transfected HEK293, 2.5 µg/ml
[6] = target: T2, cynomolgus (Macaca fascicularis) LRRC15 …; assay: SPR (Example 6), overview table, repeats Table 9; head prints [M^-1]
Protocol: as §1

[7] = target: T1, human LRRC15 extracellular domain with …; assay: calculated from SPR kd, 37°C
Protocol: as §2

Binder	Kd [1] [nM]	Kd [2] [nM]	Kd [3] [nM]	Kd [4] [nM]	Median Fluorescence AF647 [5]	Kd [6] [nM]	Complex Half Life [7] [min]
TPP-12942 (antibody, human IgG1, kappa, V domains shown, Prior art humanized IgG1 kappa antibody, used as comparator; also called huM25; huM25-hIgG1Kappa) VH: EVQLVQSGAEVKKPGASVKVSCKASGYKFSSYWIEWVKQAPGQGLEWIGEILPGSDTTNYNEKFKDRATFTSDTSINTAYMELSRLRSDDTAVYYCARDRGNYRAWFGYWGQGTLVTVSS VL: DIQMTQSPSSLSASVGDRVTITCRASQDISNYLNWYQQKPGGAVKFLIYYTSRLHSGVPSRFSGSGSGTDYTLTISSLQPEDFATYFCQQGEALPWTFGGGTKVEIKR	25	36	5.2	21	746000	36	1.6
TPP-14389 (antibody, human IgG1, kappa, V domains shown, also called 13612-rec02-hIgG1Kappa) VH: EVQLLESGGGLVQPGGSLRLSCAASGFTFSGYMMSWVRQAPGKGLEWVSGIYPSPGYTYYADSVKGRFTISRDNSKNTLYLQMNSLRAEDTAVYYCAREKASDLFGSYSEALDYWGQGTLVTVSS VL: DIQMTQSPDSLSASVGDRVTITCRASQDVGSWLAWYQQKPGKAPKLLIFAASSLESGIPSRFSGSGSGTDFTLTISSLQPEDFATYYCQQANGFPLTFGGGTKVEIKR	5.9	9	0.61	5.4	–	9	0.6

Now those with a lower Kd [1], led by results:

Kd [1] [nM]	Kd [2] [nM]	Kd [3] [nM]	Kd [4] [nM]	Median Fluorescence AF647 [5]	Kd [6] [nM]	Complex Half Life [7] [min]	Binder
1.7	1.8	0.32	1.6	777000	1.8	17.5	TPP-17078 (antibody, human IgG1, kappa, V domains shown, also called 438H-M308-H05-hIgGkappa) VH: EVQLVQSGAEVKKPGASVKVSCKASGYKFSSYWIEWVKQAPGQGLEWIGEILPGSDTTNYNEKFKDRATFTSDTSINTAYMELSRLRSDDTAVYYCARDRGNYRAWFGYWGQGTLVTVSS VL: DIQMTQSPSSLSASVGDRVTITCRASQSISSYLNWYQQKPGGAPKFLIYYASSLQSGVPSRFSGSGSGTDYTLTISSLQPEDFATYYCQQGFSLPWTFGGGTKVEIKR
0.96	0.91	0.46	0.88	649000	0.91	64.2	TPP-17421 (antibody, human IgG1, kappa, V domains shown, also called 438H-M306-C11-hIgG1Kappa) VH: EVQLVQSGAEVKKPGASVKVSCKASGYKFSSYWIEWVKQAPGQGLEWIGEILPGSDWTNYNEKFKDRATFTSDTSINTAYMELSRLRSDDTAVYYCARDRGNYRAWFQYWGQGTLVTVSS VL: DIQMTQSPSSLSASVGDRVTITCRASQSISSYLNWYQQKPGGAPKFLIYYASSLQSGVPSRFSGSGSGTDYTLTISSLQPEDFATYYCQQGLELPWTFGGGTKVEIKR
